Experimental data as given in PMC8902225.

How the values were obtained:
[1] = biological target: equine follicle-stimulating hormone receptor A306T (equine) (UniProt P47799)
[2] = biological target: equine follicle-stimulating hormone receptor D566G (equine) (UniProt P47799)
[3] = biological target: wild-type equine follicle-stimulating hormone receptor (equine) (UniProt P47799)
[4] = biological target: equine follicle-stimulating hormone receptor N191I (equine) (UniProt P47799)
[5] = biological target: equine follicle-stimulating hormone receptor R633H (equine) (UniProt P47799)
Sequence of equine follicle-stimulating hormone receptor R633H (equine) (P47799 18-694 R633H): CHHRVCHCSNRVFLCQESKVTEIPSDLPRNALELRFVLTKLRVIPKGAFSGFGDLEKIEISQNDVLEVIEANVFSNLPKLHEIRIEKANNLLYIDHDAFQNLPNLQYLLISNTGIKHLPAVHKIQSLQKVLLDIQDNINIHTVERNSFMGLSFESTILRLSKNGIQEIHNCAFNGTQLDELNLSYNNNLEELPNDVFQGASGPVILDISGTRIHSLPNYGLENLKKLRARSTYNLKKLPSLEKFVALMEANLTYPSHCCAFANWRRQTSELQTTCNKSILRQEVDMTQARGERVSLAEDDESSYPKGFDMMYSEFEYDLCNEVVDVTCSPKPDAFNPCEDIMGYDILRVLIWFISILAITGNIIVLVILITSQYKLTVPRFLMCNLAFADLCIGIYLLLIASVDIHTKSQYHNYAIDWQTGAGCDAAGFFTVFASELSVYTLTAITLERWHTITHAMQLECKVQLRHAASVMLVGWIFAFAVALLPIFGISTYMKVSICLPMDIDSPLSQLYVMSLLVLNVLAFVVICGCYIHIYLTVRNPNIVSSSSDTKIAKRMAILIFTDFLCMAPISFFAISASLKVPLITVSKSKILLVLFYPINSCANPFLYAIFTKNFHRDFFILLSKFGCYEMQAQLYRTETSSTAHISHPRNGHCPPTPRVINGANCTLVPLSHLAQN

[6] = biological target: wild-type equine follicle-stimulating hormone receptor (equine) (UniProt P47799); remark: listed apart in the source

Sequence of Human FSH (follicle-stimulating hormone) (P01215 25-116): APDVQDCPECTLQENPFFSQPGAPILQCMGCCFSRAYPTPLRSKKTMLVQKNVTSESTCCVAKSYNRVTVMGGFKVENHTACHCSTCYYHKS
Sequence of Human FSH (follicle-stimulating hormone) (P01225 19-129): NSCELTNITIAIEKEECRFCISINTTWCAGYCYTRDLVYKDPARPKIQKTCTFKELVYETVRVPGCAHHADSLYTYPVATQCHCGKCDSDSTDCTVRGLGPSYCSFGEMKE
Sequence of wild-type equine follicle-stimulating hormone receptor (equine) (P47799 18-694): as the sequence (P47799 18-694 R633H) above, with H616R counted along it
Sequence of equine follicle-stimulating hormone receptor N191I (equine) (P47799 18-694 N191I): as the sequence (P47799 18-694 R633H) above, with N174I, H616R counted along it
Sequence of equine follicle-stimulating hormone receptor A306T (equine) (P47799 18-694 A306T): as the sequence (P47799 18-694 R633H) above, with A289T, H616R counted along it
Sequence of equine follicle-stimulating hormone receptor D566G (equine) (P47799 18-694 D566G): as the sequence (P47799 18-694 R633H) above, with D549G, H616R counted along it

- EC50 of FSH-stimulated cAMP accumulation (HTRF) in transfected PathHunter EA-parental CHO-K1 cells [1]: 0.751 µg/mL
- EC50 of FSH-stimulated cAMP accumulation (HTRF) in transfected PathHunter EA-parental CHO-K1 cells [2]: 0.648 µg/mL
- EC50 of FSH-stimulated cAMP accumulation (HTRF) in transfected PathHunter EA-parental CHO-K1 cells [3]: 0.765 µg/mL
- EC50 of FSH-stimulated cAMP accumulation (HTRF) in transfected PathHunter EA-parental CHO-K1 cells [4]: 3.91 µg/mL
- EC50 of FSH-stimulated cAMP accumulation (HTRF) in transfected PathHunter EA-parental CHO-K1 cells [5]: 1.16 µg/mL
- EC50 of FSH-stimulated cAMP accumulation (HTRF) in transfected PathHunter EA-parental CHO-K1 cells (series with the inactivating mutants) [6]: 0.718 µg/mL
Substance: Human FSH (follicle-stimulating hormone) (from UniProt P01215 25-116; P01225 19-129) (ligand)
